The values below come from patent US20090226372A1 (SANFORD BURNHAM MEDICAL RESEARCH INSTITUTE, published 2009).

Assay [1] concerns the target T1, triple mutant S346A-E348A-T349A NRP-1 expressed on transiently transfected M21 melanoma cells (UniProt O14786 22-923, limits assumed).
T1 construct: whole, on cells; The stated codon change SKET to AKAA gives T349A; also called Mutant NRP-1
Put plainly: phage binding to transiently transfected M21 melanoma cells, titration.

Assay [2] addresses T2, wild-type NRP-1 expressed on transiently transfected M21 melanoma cells (UniProt O14786 22-923).
T2 construct: whole, on cells; the printed SKET at 346-349 fits human NRP-1; also called wild type NRP-1 cDNA in pcDNA3.1(+)
The experiment in a line: phage incubated with M21 cells transiently transfected with NRP-1, immunostaining and confocal imaging.

T2 sequence (O14786 22-923 limits assumed): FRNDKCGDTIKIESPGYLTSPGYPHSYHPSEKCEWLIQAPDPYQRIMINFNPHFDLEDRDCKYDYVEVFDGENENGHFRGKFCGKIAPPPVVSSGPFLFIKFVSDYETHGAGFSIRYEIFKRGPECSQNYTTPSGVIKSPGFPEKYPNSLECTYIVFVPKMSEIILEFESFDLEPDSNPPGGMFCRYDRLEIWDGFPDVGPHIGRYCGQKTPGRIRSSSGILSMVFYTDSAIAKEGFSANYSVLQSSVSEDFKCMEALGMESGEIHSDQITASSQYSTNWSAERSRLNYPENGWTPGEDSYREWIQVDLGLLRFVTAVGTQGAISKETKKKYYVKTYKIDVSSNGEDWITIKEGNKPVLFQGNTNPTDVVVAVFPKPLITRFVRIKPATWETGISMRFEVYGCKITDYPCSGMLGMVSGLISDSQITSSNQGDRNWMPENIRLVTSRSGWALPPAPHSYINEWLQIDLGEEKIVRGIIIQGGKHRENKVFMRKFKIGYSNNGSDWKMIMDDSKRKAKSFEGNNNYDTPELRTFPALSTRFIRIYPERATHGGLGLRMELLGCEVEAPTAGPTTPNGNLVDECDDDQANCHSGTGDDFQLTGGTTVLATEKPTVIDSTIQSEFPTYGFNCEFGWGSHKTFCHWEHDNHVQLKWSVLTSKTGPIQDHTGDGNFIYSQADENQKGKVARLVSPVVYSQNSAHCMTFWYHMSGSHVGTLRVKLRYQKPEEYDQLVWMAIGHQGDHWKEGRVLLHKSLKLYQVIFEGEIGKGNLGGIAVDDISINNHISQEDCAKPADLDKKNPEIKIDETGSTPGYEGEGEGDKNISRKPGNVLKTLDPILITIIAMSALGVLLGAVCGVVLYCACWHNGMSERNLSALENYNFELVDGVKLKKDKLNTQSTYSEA

B1: T7 phage displaying RPARPAR (SEQ ID NO:2) (peptide)
chain: RPARPAR
notes: also called RPARPAR phage; RPARPAR T7; not shown: T7 bacteriophage major coat protein gp10 (T7-select display system); Limits
Take B1: the binding result in assay [1] was “no binding”.

B2: T7 phage displaying RPARPARA (SEQ ID NO:3) (peptide)
chain: RPARPARA
notes: not shown: T7 bacteriophage major coat protein gp10 (T7-select display system); Limits
Turning to B2, the binding result in assay [2] is “no binding”.
